PMC7591920 (2020)
Bridge positions count the residues as written; N and C are the ends. Ends that are not written are not given here.

T1: mouse TEAD4(210–427), as purified (SPR) (mouse, UniProt Q62296 210-427)
T1 chain: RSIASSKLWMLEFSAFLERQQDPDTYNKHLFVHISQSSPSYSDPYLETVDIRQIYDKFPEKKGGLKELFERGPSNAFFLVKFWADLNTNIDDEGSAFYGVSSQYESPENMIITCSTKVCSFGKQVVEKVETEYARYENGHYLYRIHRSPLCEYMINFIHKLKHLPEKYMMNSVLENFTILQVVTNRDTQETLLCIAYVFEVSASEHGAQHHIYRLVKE

T2: GST-hTEAD1(209–426) (human, UniProt P28347 209-426)
T2 chain: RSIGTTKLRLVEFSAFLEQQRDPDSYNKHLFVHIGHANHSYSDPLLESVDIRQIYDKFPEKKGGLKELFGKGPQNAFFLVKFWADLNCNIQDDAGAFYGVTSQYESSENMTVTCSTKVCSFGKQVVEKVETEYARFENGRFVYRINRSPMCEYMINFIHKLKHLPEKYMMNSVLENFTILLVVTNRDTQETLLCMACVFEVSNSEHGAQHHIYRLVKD

B1: macrocyclic two-helix motif peptide 4A (lactam 235–250, 5 crosslinking atoms) (peptide)
chain: SVDDHFAKALGDTWLQIKAA
modifications: lactam (positions not given here); not fully specified (bridges); also: lactam crosslink of 5 atoms, residue identities at the bridge ends not given here
B2: macrocyclic two-helix motif peptide 4B (lactam 235–250, 6 crosslinking atoms) (peptide)
chain: SVDDHFAKALGDTWLQIKAA
modifications: lactam (positions not given here); not fully specified (bridges); also: lactam crosslink of 6 atoms, residue identities at the bridge ends not given here

Target: T1, mouse TEAD4(210–427), as purified (SPR)
Assay: SPR

Row | Kd | Binder
1 | 11 µM | B1
2 | 3.2 µM | SVDDHFAKALGDTWLQIKAA (lactam 3-18) [macrocyclic two-helix motif peptide 4C (lactam 235–250, seven-atom crosslink)]
3 | 11 µM | B2
4 | 1 µM | SVEDHFAKALGDTWLQIKAA (lactam (positions not given here); not fully specified (bridges)) [macrocyclic two-helix motif peptide 4D (lactam 235–250, seven-atom crosslink)]

Target: T2, GST-hTEAD1(209–426)
Assay: SPR

Row | Kd | Binder
5 | 15 µM | B1
6 | 4.8 µM | SVDDHFAKALGDTWLQIKAA (lactam 3-18) [macrocyclic two-helix motif peptide 4C (lactam 235–250, seven-atom crosslink)]
7 | 14 µM | B2
8 | 1.5 µM | SVEDHFAKALGDTWLQIKAA (lactam (positions not given here); not fully specified (bridges)) [macrocyclic two-helix motif peptide 4D (lactam 235–250, seven-atom crosslink)]
